“Also recorded” adds a separate entry of the source.
Legend:
[1] = system: rheumatoid synovial cells; conditions: rheumatoid synovial cells upon treatment; cited from earlier work
Col4a3-/- mice [2] = conditions: cited from earlier work
[3] = molecular target: T1, mouse IL11 receptor IL11RA1 (mouse, UniProt Q64385 24-432); test: immunohistochemistry on mouse kidney sections (wild-type vs Il11ra1-/-)
T1 construct: whole, on cells; Endogenous protein detected in tissue sections; also called IL-11Rα
T1 sequence (looked up): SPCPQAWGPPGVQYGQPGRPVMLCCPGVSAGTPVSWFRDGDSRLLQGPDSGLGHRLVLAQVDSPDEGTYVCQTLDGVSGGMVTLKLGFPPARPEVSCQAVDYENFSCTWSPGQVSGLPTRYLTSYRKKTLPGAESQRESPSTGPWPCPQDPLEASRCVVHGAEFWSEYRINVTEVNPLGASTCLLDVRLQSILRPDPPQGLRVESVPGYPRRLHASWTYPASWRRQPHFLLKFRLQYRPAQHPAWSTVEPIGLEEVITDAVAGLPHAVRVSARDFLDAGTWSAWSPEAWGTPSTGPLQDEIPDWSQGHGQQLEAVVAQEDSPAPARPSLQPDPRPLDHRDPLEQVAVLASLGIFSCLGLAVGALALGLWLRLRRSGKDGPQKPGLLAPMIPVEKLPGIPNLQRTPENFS
Source text: FIGS. 2A to 2E. […] (2A-2C) Renal (2A) II11 RNA and (2B-2C) IL11 protein expression in wildtype and Col4a3^{-/-} mice. (2D) Immunohistochemistry staining of IL11RA with anti-IL11RA (X209) or IgG (11E10) as control on the kidneys of wild-type and II11ra1^{-/-} mice (scale bars, 20 μm). (2E) Comparison of II11ra1 and gp130 expression in mouse kidney cells based on single cell transcriptomic analysis by Park et. al.¹⁶. (2A) Data are shown as box-and-whisker with median (middle line), 25th-75th percentiles (box) and min-max values (whiskers), (2C) data are shown as mean±SD; 2-tailed Student's t-test. FC: fold change.
(§1) Kidneys were fixed in 10% neutral-buffered formalin (NBF), paraffinized, cut into 7 μm sections, incubated with primary antibodies overnight and visualized using an ImmPRESS HRP anti-rabbit IgG polymer detection kit (MP-7401, Vector Laboratories) with ImmPACT DAB Peroxidase Substrate (SK-4105, Vector Laboratories). Quantification of WT^+ve cells were performed in a blinded fashion from 4 images (200× field)/kidney (n=3-4 kidneys/group).

Col4a3-/- mice [4] = test: Treatment study in Col4a3-/- mice: body weight and kidney weight; assay type: in vivo, mouse
Method: (§2) Col4a3^−/− (Col4a3^tm1Dec) mice were purchased from The Jackson Laboratory (https://www.jax.org/strain/002908). Mice were housed in temperatures of 21-24° C. with 40-70% humidity on a 12 h light/12 h dark cycle and provided with food and water ad libitum. For treatment study, Col4a3^−/− were administered 20 mg/kg of anti-IL11 (X203) or IgG isotype control (11E10) by intraperitoneal (IP) injection starting from 6 weeks of age twice a week for 2.5 weeks; wild-type littermates were used as controls. Mice were sacrificed for blood and kidney collection when they were 8.5-week-old. For lifespan study, IgG/X203 was administered to 6-week-old Col4a3^−/− (2×/week) until death ensued.

[5] = system: kidneys of Col4a3-/- mice; test: Treatment study: Western blot of kidney protein extracts; assay type: in vivo, mouse; conditions: 20 mg/kg IP 2x/week from 6 weeks for 2.5 weeks; vs IgG
Method: as §2
Western blot was carried out on total protein extracts from mouse kidney tissues. Kidneys were lysed in radioimmunoprecipitation assay (RIPA) buffer containing protease and phosphatase inhibitors (Thermo Scientifics), followed by centrifugation to clear the lysate. Protein concentrations were determined by Bradford assay (Bio-Rad). Protein lysates were separated by SDS-PAGE, transferred to PVDF membrane, and subjected to immunoblot analysis for various antibodies as outlined in the main text, figures, or and/or figure legends. Proteins were visualized using the ECL detection system (Pierce) with the appropriate secondary antibodies: anti-rabbit HRP or antimouse HRP.

Col4a3-/- mice [6] = test: Lifespan study in Col4a3-/- mice (Example 2); assay type: in vivo, mouse; conditions: 20 mg/kg 2x/week from 6 weeks of age until death
Method: as §2
Statistical analyses were performed using GraphPad Prism software (version 8). Statistical significance between control and experimental groups were analysed by twosided Student's t tests or by one-way ANOVA as indicated in the figure legends. P values were corrected for multiple testing according to Tukey when several conditions were compared to each other within one experiment. Comparison analysis for two parameters from two different groups were performed by two-way ANOVA. Survival curves were analyzed by Gehan-Breslow-Wilcoxon test. The criterion for statistical significance was P<0.05.

[7] = system: kidneys of Col4a3-/- mice; test: Treatment study: kidney fibrosis (renal collagen content, Masson's Trichrome staining); assay type: in vivo, mouse; conditions: 20 mg/kg IP 2x/week from 6 weeks for 2.5 weeks; vs IgG
Method: as §2
Kidney tissues were fixed for 48 hours at RT in 10% neutral-buffered formalin (NBF), dehydrated, embedded in paraffin, and sectioned at 7 μm. Transverse kidney sections were then stained with Masson's Trichrome according to standard protocol. Images of the sections were captured by light microscopy and blue-stained fibrotic areas were semi-quantitatively determined with Image-J software (color deconvolution-Masson Trichrome) from the whole kidney area (100× field, n=4 kidneys/group). Treatment and genotypes were not disclosed to investigators performing the histology and generating semi-quantitative readouts.

Col4a3-/- mice [8] = test: Treatment study: renal function by colorimetric assays (BUN, creatinine, urinary albumin:creatinine); assay type: in vivo, mouse; conditions: 20 mg/kg 2x/week from week 6; study end 8.5 weeks of age; vs IgG
Method: as §2
The levels of blood urea nitrogen (BUN) and creatinine in mouse serum were measured using Urea Assay Kit (ab83362, Abcam) and Creatinine Assay Kit (ab65340, Abcam), respectively. Urine albumin and creatinine levels were measured using Mouse Albumin ELISA kit (ab108792, Abcam) and Creatinine Assay Kit (ab204537, Abcam), respectively. All ELISA and colorimetric assays were performed according to the manufacturer's protocol.

[9] = system: kidneys of Col4a3-/- mice; test: Treatment study: renal mRNA expression by qPCR; assay type: in vivo, mouse; conditions: 20 mg/kg IP 2x/week from 6 weeks for 2.5 weeks
Method: as §2
Total RNA was extracted from snap-frozen kidney tissues using Trizol (Invitrogen) followed by RNeasy column (Qiagen) purification. cDNAs were synthesized with iScript™ cDNA synthesis kit (Bio-Rad) according to manufacturer's instructions. Gene expression analysis was performed on duplicate samples with either TaqMan (Applied Biosystems) or fast SYBR green (Qiagen) technology using StepOnePlus™ (Applied Biosystem) over 40 cycles. Expression data were normalized to GAPDH mRNA expression and fold change was calculated using 2^−ΔΔct method. The sequences of specific TaqMan probes and SYBR green primers are available upon request.

[10] = system: mice homozygous for the Col4a3tm1Dec mutation; test: Survival in mouse model of Alport syndrome (Example 1); assay type: in vivo; conditions: 20 mg/kg intraperitoneal, biweekly, from 6 weeks of age until mortality
Source text: 129-Col4a3^tm1Dec/J mice were obtained from The Jackson Laboratory (Stock No:002908; COL4A3 KO). The mice comprise the Co/4a3^tm1Dec mutation described e.g. in Cosgrove et al., Genes Dev. (1996) 10:2981-2992, which is hereby incorporated by reference in its entirety. 129-Col4a3^tm1Dec/J mice comprise a targeted mutation to Col4a3, resulting in progressive glomerulonephritis with microhematuria and proteinuria, and mice homozygous for the mutation typically die at about 8.5 weeks.
From 6 weeks of age, mice homozygous for the Co/4a3^tm1Dec mutation were administered biweekly by intraperitoneal injection of 20 mg/kg of Enx203, or an isotype-matched control antibody, until mortality.

[11] = system: kidneys of Col4a3-/- mice; test: Treatment study: Wilms' Tumor 1 immunohistochemistry (podocytes); assay type: in vivo, mouse; conditions: 20 mg/kg IP 2x/week from 6 weeks for 2.5 weeks, vs IgG
Method: as §2, §1

[12] = treatment of 4-week-old mice, prior to onset of proteinuria and tubulointerstitial fibrosis

Molecule: COc1ccc2c(c1)c(CC(=O)O)c(C)n2C(=O)c1ccc(Cl)cc1 [indomethacin, reference compound]
- expression of IL-11 [1]: reduction

Molecule: CCOC(=O)[C@H](CCc1ccccc1)N[C@@H](C)C(=O)N1[C@H](C(=O)O)C[C@@H]2CCC[C@@H]21 [ramipril]
- effect of delayed treatment (Col4a3-/- mice [2]; treatment delayed until after proteinuria was established (6-week-old mice)): ineffective; also recorded: no beneficial effect
- kidney dysfunction (Col4a3-/- mice [2]; [12]): attenuated
- lifespan (Col4a3-/- mice [2]; [12]): prolonged

B1: anti-IL11RA antibody X209 (antibody, V domains shown)
VH: QVQLQQPGAELVRPGSSVKLSCKASGYTFTNYWMHWLKQRPVQGLEWIGNIGPSDSKTHYNQKFKDKATLTVDKSSSTAYMQLNSLTSEDSAVYYCARGDYVLFTYWGQGTLVTVSA
VL: DIVLTQSPATLSLSPGERATLSCRASQSISNNLHWYQQKSHEAPRLLIKYASQSISGIPARFSGSGSGTDFTLSFSSLETEDFAVYFCQQSYSWPLTFGQGTKLEIK
notes: also called Enx209; anti-IL11RA (X209, Aldevron)
- binding result [3]: binds

B2: interferon-gamma: interferon-gamma (IFNγ) (protein, UniProt P01579 24-161, looked up)
Interferon gamma: QDPYVKEAENLKKYFNAGHSDVADNGTLFLGILKNWKEESDRKIMQSQIVSFYFKLFKNFKDDQSIQKSVETIKEDMNVKFFNSNKKKRDDFEKLTNYSVTDLNVQRKAIHELIQVMAELSPAAKTGKRKRSQMLFRG
- expression of IL-11 [1]: reduction

B3: X203: mouse anti-mouse IL-11 IgG, neutralizing IL11 antibody; VH SEQ ID NO:22, VL SEQ ID NO:23 (antibody, V domains shown)
VH: EVQLQQSGPELVKPGASVKIPCKASGYTFTDYNMDWVKQSHGKSLEWIGDINPHNGGPIYNQKFTGKATLTVDKSSSTAYMELRSLTSEDTAVYYCARGELGHWYFDVWGTGTTVTVSS
VL: DIVLTQSPASLAVSLGQRATISCRASKSVSTSGYSYIHWYQQKPGQPPKLLIYLASNLDSGVPARFSGSGSGTDFTLNIHPVEEEDAATYYCQHSRDLPPTFGGGTKLEIK
- kidney mass (Col4a3-/- mice [4]; 20 mg/kg IP 2x/week from 6 weeks for 2.5 weeks, vs IgG): preserved
- total body weight loss, as percentage of starting body weight (Col4a3-/- mice [4]; 20 mg/kg IP 2x/week from 6 weeks of age for 2.5 weeks, end of study, IgG control 30%, P=0.0003): 17%
- Caspase 3 activation [5]: reduced
- ERK phosphorylation in kidneys [5]: largely diminished
- Podocin protein level (immunoblotting) [5]: restored towards normal
- STAT3 phosphorylation in kidneys [5]: largely diminished
- Wilms' Tumor 1 protein level (immunoblotting) [5]: restored towards normal; also recorded: Preservation of podocytes
- alpha-smooth muscle actin (αSMA) protein level (reduction seen on transcript) [5]: confirmed at the protein level
- degree of TGFβ upregulation in the kidneys [5]: significantly reduced
- fibronectin protein level (reduction seen on transcript) [5]: confirmed at the protein level
- median lifespan (Col4a3-/- mice [6]; IgG control 62.5 days, P=0.0015): 88.5 days
- extension of median life span (Col4a3-/- mice [6]; vs IgG control): 41.6%
- kidney fibrosis by biochemical and histological assessments [7]: significantly less
- serum blood urea nitrogen (BUN) (Col4a3-/- mice [8]): markedly lowered
- serum creatinine (Cr) (Col4a3-/- mice [8]): markedly lowered
- urinary albumin:creatinine ratio (ACR) (Col4a3-/- mice [8]): markedly lowered
- CC chemokine CcI2 mRNA ([9]; vs IgG): diminished
- CC chemokine CcI5 mRNA ([9]; vs IgG): diminished
- Tnfα expression ([9]; vs IgG): reduced
- proinflammatory interleukin II1b mRNA ([9]; vs IgG): diminished
- proinflammatory interleukin II6 mRNA ([9]; vs IgG): diminished
- renal level of Col1a1 gene expression ([9]; vs IgG): reduced
- renal level of Col1a2 gene expression ([9]; vs IgG): reduced
- renal level of Col3a1 gene expression ([9]; vs IgG): reduced
- renal level of Fn gene expression ([9]; vs IgG): reduced
- renal level of II11 gene expression ([9]; vs IgG): reduced
- renal level of Tgfb1 gene expression ([9]; vs IgG): reduced
- renal level of myofibroblast marker Acta2 gene expression ([9]; vs IgG): reduced
- tubule damage indicator Kim1 mRNA ([9]; vs IgG and wild-type): restored
- tubule damage indicator Ngal mRNA ([9]; vs IgG and wild-type): restored
- increase in survival relative to mice treated with isotype-matched control antibody [10]: up to 40%
- Wilms' Tumor 1 (WT1) staining [11]: greater staining
- number of WT1-positive cells (podocytes) ([11]; blinded quantification): restored towards normal; also recorded: significant (P=0.0002) restoration

Reference: patent publication US20230212279A1, “TREATMENT AND PREVENTION OF DISEASE CAUSED BY TYPE IV COLLAGEN DYSFUNCTION” (Singapore Health Services PTE, LTD., priority 2020, published 2023)
